Experimental data published in US6383753 (REGENTS OF THE UNIVERSITY OF MICHIGAN, dated 2002).

How the values were obtained:
[1] = molecular target: T1, yeast Emg1-Nuclear Interacting Protein 1 (ENIP1), S. cerevisiae gene locus YDL148c (S. cerevisiae, UniProt Q99207 1-810, limits assumed); test: yeast two-hybrid, cell growth assay on selective (no histidine) medium
T1 construct: 810 amino acids; also called yeast ENIP1; yENIP
T1 sequence: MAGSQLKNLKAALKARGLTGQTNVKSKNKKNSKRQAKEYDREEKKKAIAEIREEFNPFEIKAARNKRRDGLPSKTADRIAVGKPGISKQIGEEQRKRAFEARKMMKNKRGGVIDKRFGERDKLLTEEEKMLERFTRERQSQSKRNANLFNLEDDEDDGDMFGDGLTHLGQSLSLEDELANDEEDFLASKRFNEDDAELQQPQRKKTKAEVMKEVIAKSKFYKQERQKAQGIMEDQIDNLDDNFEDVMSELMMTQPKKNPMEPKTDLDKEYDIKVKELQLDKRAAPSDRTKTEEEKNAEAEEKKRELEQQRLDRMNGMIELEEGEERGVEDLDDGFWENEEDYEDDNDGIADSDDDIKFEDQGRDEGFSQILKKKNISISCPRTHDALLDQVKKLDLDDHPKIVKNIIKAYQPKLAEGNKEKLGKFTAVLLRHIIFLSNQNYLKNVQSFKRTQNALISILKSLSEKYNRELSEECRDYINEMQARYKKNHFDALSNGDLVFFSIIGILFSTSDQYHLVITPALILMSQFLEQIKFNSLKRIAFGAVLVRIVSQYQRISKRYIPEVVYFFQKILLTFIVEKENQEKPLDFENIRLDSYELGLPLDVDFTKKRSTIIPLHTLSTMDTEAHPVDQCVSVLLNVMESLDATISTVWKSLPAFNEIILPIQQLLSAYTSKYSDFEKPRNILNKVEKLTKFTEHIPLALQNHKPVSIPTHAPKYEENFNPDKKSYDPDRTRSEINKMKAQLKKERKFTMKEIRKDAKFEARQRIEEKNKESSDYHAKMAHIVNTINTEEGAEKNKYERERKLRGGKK

[2] = molecular target: T2, yeast ENIP1 protein fragment (composed of amino acids 170-469) (S. cerevisiae, UniProt Q99207 170-469); test: yeast two-hybrid
T2 construct: Truncation construct used in the yeast two-hybrid system
T2 sequence: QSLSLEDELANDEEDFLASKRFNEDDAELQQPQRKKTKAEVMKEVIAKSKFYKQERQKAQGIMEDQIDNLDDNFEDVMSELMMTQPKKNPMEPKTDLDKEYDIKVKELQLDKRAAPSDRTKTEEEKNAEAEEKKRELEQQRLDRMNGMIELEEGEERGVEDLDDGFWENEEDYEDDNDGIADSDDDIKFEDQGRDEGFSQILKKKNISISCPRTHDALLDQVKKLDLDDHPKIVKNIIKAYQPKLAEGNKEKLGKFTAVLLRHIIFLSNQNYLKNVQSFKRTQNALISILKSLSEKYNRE

binding result [1]: binds
binding result [2]: binds
B1: mouse Emg1 protein (other)
chain: MSAASGGFQPRERRFSVQEQDWETTPPKKLRLGAGSKCGGRRLIVVLEGASLETVKVGKTYELLNCDRHKSMLLKNGRDPGEVRPDITHQSLLMLMDSPLNRAGLLQVYIHTQKNVLIEVNPQTRIPRTFDRFCGLMVQLLHKLSVRAADGPQKLLKVIKNPVSDHFPVGCMKIGTSFSVEDISDIRELVPSSDPVVFVVGAFAHGKVSVEYTEKMVSISNYPLSAALTCAKVTTAFEEVWGVI
notes: Used as a two-hybrid fusion; also called mEmg1; murine Emg1
